Assay results taken from patent US20050277575A1, “Therapeutic compositions and methods for treating diseases that involve angiogenesis” (priority 2004, published 2005).

Experiments:
[1] = biological target: T1, t-PA-mediated plasminogen activation (Homo sapiens, UniProt P00750); test: t-PA-dependent conversion of plasminogen to plasmin, effect of S100A4 (Example 11); type: biochemical
T1 construct: purchased Calbiochem
Experimental: Non-active plasminogen can be converted to active protease plasmin by tissue type (t-PA) or urokinase type (u-PA) plasminogen activators. Except for its well-known fibrinolytic activity, plasmin also directly and indirectly, by activation of matrix metalloproteinases (MMPs), participates in the degradation of extracellular matrix that is important for the angiogenesis and tumor invasion. The kinetics of t-PA-mediated plasminogen activation was determined by measuring amidolytic activity of the plasmin generated during plasminogen activation. The reaction was performed with the plasmin substrate Chromozyme PL, tosyl-glycyl-prolyl-lysin-4-nitranilide-acetate (Roche) in the final concentration of 125 μM in a buffer consisting of 50 mM Tris-HCl, pH 7.4, 100 mM NaCl, 5 mM of CaCl2 or 5 mM of EGTA, and 150 nM of [Glu] plasminogen (Calbiochem). The reaction was preincubated with or without 2.5 μM S100A4 at 24 C° for 1 h in 96-well plates. The reaction was initiated by addition of t-PA (Calbiochem) up to 5 nM concentration, final volume 100 μl. Kinetic of substrate hydrolysis was measured at 2 min intervals at 405 nm in Spectramax Plus 384 spectrophotometer (Molecular Devices). Analysis of kinetics curves (Vmax, time to Vmax, and initial slope of kinetic data converted to A405 versus time^2) was performed with the help of Softmax PRO program (Molecular Devices).
Kinetics of plasminogen to plasmin conversion consists of three parts. As shown in FIG. #3 curves 1 and 2 for t-PA, during first 1500 s the reaction is second order that corresponds to conversion of plasminogen to plasmin and consequent cleavage of chromogenic substrate by plasmin. The second part of reaction is linear, for which Vmax can be calculated. It starts after total conversion of plasminogen to plasmin and corresponds to cleavage of chromogenic substrate by plasmin with constant rate. In the third part of reaction, after 2700 s, the reaction is slowing down that corresponds to depletion of chromogenic substrate and finally the reaction reaches a plateau when all substrate is cleaved. As follows from the comparison of curves 1 and 2, t-PA along converted plasminogen to plasmin equally efficiently in the presence or absence of calcium. Neither conversion of plasminogen to plasmin took place in the absence of t-PA no S110A4 induced such conversion by itself, curves 5 and 6. In the presence of S100A4 linear part of reaction starts substantially earlier, which means that total conversion of plasminogen to plasmin was accelerated. Kinetic parameters for t-PA along and for combination of t-PA with S100A4 are represented in Table 4. […] S100A4 accelerated conversion of plasminogen to plasmin in calcium independent manner, curves 3 and 4.

[2] = biological target: T2, annexin II (Homo sapiens, UniProt P07355); test: Immunoprecipitation analysis of S100A4-annexin II complex formation; type: binding; conditions: monomer and aggregated forms, in Ca2+ or EGTA
T2 construct: GST (N); made in house; host or cells: E. coli ER2507
Experimental: S100A4 and annexin II proteins, both at the concentrations of 1.5 mg/ml, were pre-incubated overnight at 37° C. in TBS containing either 5 mM CaCl2, or 5 mM EGTA.
The formation of the S100A4-annexin II complex was analyzed by immunoprecipitation with an anti-S100A4 rabbit polyclonal antibody. To this end, the reaction mixture was incubated with the antibody (10 μg/ml) for 1 h at 37° C. and then precipitated by adding protein G-sepharose beads (Affi-Gel; Bio-Rad Laboratories, Hercules, Calif.) and incubating the resulted mixture for 1 h at room temperature. After that the beads were washed 3 times by 500 ul of TBS, boiled in Laemmli sample buffer for 5 min, and then loaded on SDS-PAAG. The proteins were then electro-transferred to a nitrocellulose membrane. The Western blot analysis was performed using anti-Annexin II antibody (BD Pharmingen) used at 1:5000 dilution and sheep anti-mouse antibody conjugated to horseradish peroxidase (Amersham Pharmacia Biotech, Piscataway, N.J.) used at 1:10000 dilution, followed visualization of the Annexin II bands by chemiluminescence.
However, the complex formation is more efficient in the case when the aggregated S100A4 are used. Additionally, the interaction between S100A4 (both monomer and oligomer) and annexin II is more efficient in the absence of Ca2+ (EGTA conditions) compared to that observed in the presence of Ca2+.

[3] = test system: Human cerebral endothelial cells (HCEC); test: Capillary tube formation in Matrigel, S100A4 induced angiogenesis; type: cell-based; conditions: primary HCEC grown in Matrigel
Text: Human cerebral endothelial cells (HCEC) were isolated using previously described protocols (Stanimirovic, D., P. Morley, et al. (1996). “Angiotensin II-induced fluid phase endocytosis in human cerebromicrovascular endothelial cells is regulated by the inositol-phosphate signaling pathway.” J Cell Physiol 169(3): 455-67.). Purity of HCEC cultures generated by these procedures was routinely assessed by the immunocytochemical staining for Factor VIII-related antigen and the lack of staining for smooth muscle β-actin, and is estimated to be >95%. The morphological, phenotypic, biochemical and functional characteristics of these HCEC cultures have been described in detail previously (Muruganandam, A., L. M Herx, et al. (1997). “Development of immortalized human cerebromicrovascular endothelial cell line as an in vitro model of the human blood-brain barrier.” Faseb J 11(13): 1187-97).
HCEC were seeded (8×10^4 cells) on a semi-solid basement membrane matrix, Matrigel™ (Collaborative Biomedical Products, Bedford, Mass.)-coated 24-well plates and exposed to serum-free media containing various treatments. […] Confocal apertures for each recorded wavelength were adjusted to a full width half maximum of 20 μm. […] Eight to 32 individual optical sections were collected and the average was calculated. […]

[4] = Ca (5 mM CaCl2), with or without 2.5 μM S100A4

T1 sequence (P00750 36-562): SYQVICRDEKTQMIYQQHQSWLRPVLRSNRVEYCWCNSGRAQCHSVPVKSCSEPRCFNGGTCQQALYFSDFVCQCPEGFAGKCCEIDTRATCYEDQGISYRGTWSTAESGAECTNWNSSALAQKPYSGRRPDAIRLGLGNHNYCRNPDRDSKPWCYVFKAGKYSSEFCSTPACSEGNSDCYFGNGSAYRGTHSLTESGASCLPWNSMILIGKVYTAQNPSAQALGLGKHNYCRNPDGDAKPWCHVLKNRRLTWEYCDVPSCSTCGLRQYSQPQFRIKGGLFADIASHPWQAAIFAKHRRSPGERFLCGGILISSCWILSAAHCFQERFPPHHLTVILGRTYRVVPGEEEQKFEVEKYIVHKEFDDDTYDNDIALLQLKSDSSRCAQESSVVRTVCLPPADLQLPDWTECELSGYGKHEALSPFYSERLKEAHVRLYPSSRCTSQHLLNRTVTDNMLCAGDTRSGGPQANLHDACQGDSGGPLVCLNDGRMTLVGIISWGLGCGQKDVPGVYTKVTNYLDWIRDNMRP
T2 sequence (P07355 2-339 V98L): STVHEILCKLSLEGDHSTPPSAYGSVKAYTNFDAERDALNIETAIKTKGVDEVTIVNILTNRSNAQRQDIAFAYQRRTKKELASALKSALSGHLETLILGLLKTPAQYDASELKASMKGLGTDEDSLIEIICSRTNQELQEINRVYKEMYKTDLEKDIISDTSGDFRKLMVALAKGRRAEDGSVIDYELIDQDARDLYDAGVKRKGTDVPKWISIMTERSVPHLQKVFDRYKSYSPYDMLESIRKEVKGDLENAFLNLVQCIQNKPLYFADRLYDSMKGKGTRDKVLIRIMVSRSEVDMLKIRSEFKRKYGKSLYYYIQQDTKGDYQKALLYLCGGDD
T2 sequence (P26447 whole entry partner): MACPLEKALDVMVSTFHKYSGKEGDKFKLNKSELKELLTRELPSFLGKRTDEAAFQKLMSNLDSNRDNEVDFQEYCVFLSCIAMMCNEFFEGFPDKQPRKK

Substance: S100A4: recombinant human S100A4 protein cloned from human placenta total RNA, Ca-binding protein of S100 family
- increase of initial rate of plasmin generation ([1]; 2.5 μM S100A4 versus t-PA alone): more than 3 fold
- Slope (initial rate of plasmin generation) [1, 4]: 0.250 ΔA405/t^2(min^2) * 1000
- Time to Vmax [1, 4]: 1440 s
- complex formation with annexin II [2]: capable of complex formation with annexin II
- concentration of S100A4 from which angiogenesis is induced [3]: ≥ 10 nM
